Results on eight molecules are retold here after patent US20200109211A1 (ELSALYS BIOTECH, published 2020).

Assay [1] has as its target T1, recombinant human CD160 protein, soluble form, with a C-terminal tag of 6 histidine residues (R&D SYSTEMS) (human, UniProt O95971 27-159, limits assumed, biotinylated with EZ-Link sulfo-NHS-LC-biotin for BLI and ELISA; not biotinylated when immobilised on the CM5 chip for SPR).
T1 construct: domain: soluble form; Bought protein; also called hCD160-his; biotinylated CD160
T1 sequence: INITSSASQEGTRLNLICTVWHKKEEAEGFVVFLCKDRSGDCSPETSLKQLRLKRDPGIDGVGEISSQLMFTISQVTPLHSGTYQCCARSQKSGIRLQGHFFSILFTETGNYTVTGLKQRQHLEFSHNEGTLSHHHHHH
The assay is described as follows: BLI (Octet K2), biotinylated hCD160-His on streptavidin sensor, antibody as analyte. On the procedure:
(§1) All the experiments were carried out at 30° C. in the running buffer recommended by Fortebio (PBS with 0.1% (p/v) of bovine serum albumin (BSA) and 0.02% (v/v) Tween-20). This buffer was also used for diluting the various ligands and analytes. The samples deposited in a 96-well microplate (cat #738-0026, Dutscher) were shaken at 1000 revolutions per minute.
Between the measurements, the surfaces of the biosensor were regenerated by exposing them to 3 cycles of 5 sec in 10 mM glycine, pH 2, followed by 5 sec in running buffer. The association and dissociation phases were measured for 300 seconds. All the measurements were corrected for the basic drift by subtracting a reference well with a ligand subjected only to the running buffer.
(§2) The dissociation constants and the association (kₒₙ) and dissociation (kdis) rate constants for each antibody were calculated by applying a 1:1 interaction model, with overall mathematical modelling of curves (fit) (Rmax bound by the sensor) on the ForteBio 9.0 data analysis software.
(BLI is a label-free optical method that tracks binding on a fibre tip over time.)

Assay [2] concerns the target T2, human CD160 (CD160 GPI isoform) on cells (human, UniProt O95971 25-159, GPI anchor).
T2 sequence (looked up): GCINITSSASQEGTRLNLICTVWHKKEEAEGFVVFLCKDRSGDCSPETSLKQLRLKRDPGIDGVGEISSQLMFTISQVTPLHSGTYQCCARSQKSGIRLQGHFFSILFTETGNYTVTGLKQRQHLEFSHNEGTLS
The assay is described as follows: cell-based or functional assay.

The target of assay [3] is T1, recombinant human CD160 protein, …. The assay is described as follows: BLI, biotinylated CD160 at 10 nM on streptavidin sensor, antibody 3.13-100 nM. Here is the method:
as §1, §2

Assay [4] has the same target. The assay can be described thus: BLI.
The target is the same in assay [5]. The assay is described as follows: BLI (repeats Table 8).
For assay [6] the target is unchanged. The assay can be described thus: SPR (Biacore), design close to Example 2. Background: Surface plasmon resonance follows binding to a sensor surface in real time, without labels.
Assay [7] shares this target. The assay is described as follows: BLI, biotinylated CD160 at 10 nM on streptavidin sensor, antibody 3.13-100 nM. The source holds these as a separate data set.
Assay [8] shares this target. The assay can be described thus: BLI (repeats Table 9).
For assay [9] the target is unchanged. The assay is described as follows: BLI, biotinylated CD160 at 10 nM on streptavidin sensor, antibody 3.13-100 nM. This is another data set of the same source.
The target is the same in assay [10]. The assay can be described thus: BLI (repeats Table 7).
Assay [11] has the same target. The assay is described as follows: BLI, biotinylated CD160 at 10 nM on streptavidin sensor, antibody 3.13-100 nM. On the procedure:
as §2
This is another data set of the same source.

Where a chain is given by its changes, count along the chain named. Names may count otherwise.

B1: chimerized antibody issued from CL1-R2 in the human IgG1 format (antibody, V domains shown)
VH: QVHLQQSGAELARPGASVKLSCKASGYTFTDYWMQWIKQRPGQGLEWIGSIYPGDDDARYTQKFRGKATLTADKSSSTAYMQLSSLASEDSAVYYCARRGIAAVVGGFDYWGQGTTLTVSS
VL: DIVLTQSPATLSVTPGNSVSLSCRASQSISNHLHWYQQKSHESPRLLIKYASQSISGIPSRFSGSGSGTDFTLSINSVETEDFGMYFCQQSNSWPLTFGAGTKLELK
notes: also called chIgG1; chimeric IgG1
As to B1, in assay [1], the “Binding response, at 50 nM of anti-CD160” value is 0.41 nm (arbitrary units); the dissociation constant (Kd) (commonly the concentration at which binding is half-saturated) came to 14.3 nM; the koff (as a rule, the first-order rate constant of dissociation) turned out to be 0.00297 s⁻¹; the kon – broadly, the second-order rate constant of association – is 208000 M⁻¹ s⁻¹.

B2: chimerized antibody issued from CL1-R2 in the human IgG4 format (antibody, V domains shown)
VH: B1 VH
VL: B1 VL
notes: also called chIgG4; chimeric IgG4
For B2, in assay [1], the “Binding response, at 50 nM of anti-CD160” value is 0.41 nm (arbitrary units); the Kd stood at 14.8 nM; the koff came out at 0.00323 s⁻¹; the association rate constant (kon) is 218000 M⁻¹ s⁻¹.

B3: CL1-R2 murine monoclonal anti-human CD160 antibody (antibody, V domains shown)
VH: B1 VH
VL: B1 VL
notes: Murine IgG1; also called parental CL1-R2; murine anti-CD160 IgG1
On to B3, for which, in assay [1], the “Binding response, at 50 nM of anti-CD160” value was 0.6 nm (arbitrary units); the Kd was 15.4 nM; the koff worked out at 0.00283 s⁻¹; the kon stood at 183000 M⁻¹ s⁻¹.

B4: F04 in the IgG1 E345K format (antibody)
heavy: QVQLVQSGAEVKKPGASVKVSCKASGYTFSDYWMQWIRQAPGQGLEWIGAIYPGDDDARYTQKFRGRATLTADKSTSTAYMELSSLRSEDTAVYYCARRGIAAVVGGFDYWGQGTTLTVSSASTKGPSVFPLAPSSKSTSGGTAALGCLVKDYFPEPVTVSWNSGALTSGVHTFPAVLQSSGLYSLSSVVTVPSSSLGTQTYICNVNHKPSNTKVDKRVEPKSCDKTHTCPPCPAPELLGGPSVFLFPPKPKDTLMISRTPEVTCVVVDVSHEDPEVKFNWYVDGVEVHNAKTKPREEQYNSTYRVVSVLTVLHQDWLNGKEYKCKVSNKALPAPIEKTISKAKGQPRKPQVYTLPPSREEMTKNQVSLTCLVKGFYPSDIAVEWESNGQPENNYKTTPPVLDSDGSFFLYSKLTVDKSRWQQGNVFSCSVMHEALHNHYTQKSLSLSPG
light: EIVLTQSPATLSLSPGERATLSCRASQSISNHLHWYQQKPGQAPRLLIKYASQSISGIPARFSGSGSGTDFTLTISSLEPEDFAVYFCQQSNSWPLTFGGGTKVEIKRTVAAPSVFIFPPSDEQLKSGTASVVCLLNNFYPREAKVQWKVDNALQSGNSQESVTEQDSKDSTYSLSSTLTLSKADYEKHKVYACEVTHQGLSSPVTKSFNRGEC
notes: also called ELB02113
Take B4: in assay [2], the “EC50 of IFN-gamma production by NK cells, additional improvement against the IgG1 variants” value is 2 logs and the “EC50 of IFN-gamma production by NK cells, improvement against ELB02101” value stood at 4 logs. Moreover, in [3], the Kd came to 1.55 nM, the koff was 0.000662 s⁻¹ and the kon was 427000 M⁻¹ s⁻¹.

B5: F04 IgG4 S228P/R409K (antibody)
heavy: QVQLVQSGAEVKKPGASVKVSCKASGYTFSDYWMQWIRQAPGQGLEWIGAIYPGDDDARYTQKFRGRATLTADKSTSTAYMELSSLRSEDTAVYYCARRGIAAVVGGFDYWGQGTTLTVSSASTKGPSVFPLAPCSRSTSESTAALGCLVKDYFPEPVTVSWNSGALTSGVHTFPAVLQSSGLYSLSSVVTVPSSSLGTKTYTCNVDHKPSNTKVDKRVESKYGPPCPPCPAPEFLGGPSVFLFPPKPKDTLMISRTPEVTCVVVDVSQEDPEVQFNWYVDGVEVHNAKTKPREEQFNSTYRVVSVLTVLAQDWLNGKEYKCKVSNKGLPSSIEKTISKAKGQPREPQVYTLPPSQEEMTKNQVSLTCLVKGFYPSDIAVEWESNGQPENNYKTTPPVLDSDGSFFLYSKLTVDKSRWQEGNVFSCSVMHEALHNQYTQKSLSLSLG
light: B4 light
notes: also called ELB01106
Regarding B5, the “Gain in KD/respective IgG” value in [4] came out at 1.8 fold. Besides, in assay [5], the Kd is 1.63 nM, the off-rate (koff) came out at 0.000736 s⁻¹ and the kon amounted to 453000 M⁻¹ s⁻¹. Moreover, in assay [6], the “Gain in KD/respective IgG” value was found to be 3.5 fold, the Kd came to 4.1 nM, the koff was 0.000721 s⁻¹ and the kon came to 176000 M⁻¹ s⁻¹. For the same molecule, in [7], the Kd turned out to be 1.63 nM, the koff is 0.000736 s⁻¹ and the kon was found to be 453000 M⁻¹ s⁻¹.

B6: F04 in the IgG1 format (antibody)
heavy: not shown
light: B4 light
notes: also called ELB02103
On to B6, for which the “Gain in KD/respective IgG” value in [4] is 2.1 fold. Moreover, the “EC50 of NK cell activation (IFN-γ, CD69), improvement against ELB02101” value in assay [2] was in the range of 2 to 3 logs. Moreover, in [8], the Kd came out at 1.43 nM, the koff stood at 0.000531 s⁻¹ and the kon was determined as 371000 M⁻¹ s⁻¹. Moreover, in [6], the “Gain in KD/respective IgG” value is 3.3 fold, the dissociation constant Kd came out at 3.6 nM, the off-rate constant (koff) was found to be 0.000726 s⁻¹ and the on-rate (kon) worked out at 200000 M⁻¹ s⁻¹. For the same molecule, in [9], the Kd came out at 1.43 nM, the koff was determined as 0.000531 s⁻¹ and the on-rate (kon) was determined as 371000 M⁻¹ s⁻¹.

B7: H7 IgG4 S228P/R409K (antibody)
heavy: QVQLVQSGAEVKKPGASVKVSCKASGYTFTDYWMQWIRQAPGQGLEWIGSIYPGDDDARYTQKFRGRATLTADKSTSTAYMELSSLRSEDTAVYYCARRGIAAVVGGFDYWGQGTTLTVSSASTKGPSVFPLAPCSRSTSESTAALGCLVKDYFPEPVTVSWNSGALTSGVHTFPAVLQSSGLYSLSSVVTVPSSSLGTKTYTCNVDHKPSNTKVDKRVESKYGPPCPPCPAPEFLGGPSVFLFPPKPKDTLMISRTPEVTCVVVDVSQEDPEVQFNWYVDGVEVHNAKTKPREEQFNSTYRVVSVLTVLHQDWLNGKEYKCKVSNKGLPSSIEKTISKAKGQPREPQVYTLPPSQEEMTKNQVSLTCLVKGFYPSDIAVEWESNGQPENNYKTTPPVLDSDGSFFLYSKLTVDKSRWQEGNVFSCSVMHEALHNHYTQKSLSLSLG
light: B4 light
notes: also called ELB01101; H7 IgG4 WT
As for B7, the dissociation constant (Kd) is 2.61 nM in assay [10], 13.1 nM in [6], 2.61 nM in [11] and 4.49 nM in [1]. Also, the koff turned out to be 0.00123 s⁻¹ in assay [10], 0.00285 s⁻¹ in assay [6], 0.00123 s⁻¹ in assay [11] and 0.00157 s⁻¹ in assay [1]. For the same molecule, the kon worked out at 469000 M⁻¹ s⁻¹ in assay [10], 218000 M⁻¹ s⁻¹ in [6], 469000 M⁻¹ s⁻¹ in assay [11] and 350000 M⁻¹ s⁻¹ in assay [1]. The “Binding response, at 50 nM of anti-CD160” value in [1] was 0.6 nm (arbitrary units).

B8: H7 IgG4 S228P/R409K/H310A/H435Q (antibody)
heavy: B5 heavy with S30T, A50S
light: B4 light
notes: also called ELB01102; H7 IgG4 H310A-H435Q
Take B8: in assay [5], the dissociation constant (Kd) turned out to be 2.91 nM, the off-rate (koff) was found to be 0.00148 s⁻¹ and the kon was 507000 M⁻¹ s⁻¹. For the same molecule, in assay [6], the equilibrium dissociation constant (Kd) came to 14.5 nM, the koff turned out to be 0.00297 s⁻¹ and the kon was 205000 M⁻¹ s⁻¹. Besides, in [7], the dissociation constant Kd came out at 2.91 nM, the koff came to 0.00148 s⁻¹ and the on-rate constant (kon) was found to be 507000 M⁻¹ s⁻¹.
